From article PMC11879458

Legend:
Assay in all cases: EMSA
[1] = biological target: ADR-2 (ΔdsRBD);ADBP-1 (Δ1-66 aa) (Caenorhabditis elegans;Caenorhabditis …, UniProt Q22618;G5EDW1 1-35+106-495;67-217, internal_change|del1-66)
ADR-2;ADBP-1 = ADR-2;ADBP-1 (Caenorhabditis elegans;Caenorhabditis …, UniProt Q22618;G5EDW1 1-495;1-217, |)
ADR-2 = ADR-2 (Caenorhabditis elegans, UniProt Q22618 1-495)

B1: FAM-dsRNA 21 bp (dsRNA)
RNA 1: AAGGAUUACUGUAGUUUUCGC
RNA 2: GCGAAAACUACAGUAAUCCUU
binding result [1]: no binding | binding result (ADR-2;ADBP-1): binds | binding result (ADR-2): binds
